Laboratory results published in the DeepSol protein solubility set.

Assay: soluble on expression in E. coli; label from the status in PepcDB or PDB records

Question: For “MSLEMNRYLSFTLFTGLSLLTTIPIEAYTLNPNKTATSILQTNVIEVRSITSVQPIVIYCPVGTVPQLPYQVWVTYSDGQGEYRQTKWSNSALSTEQSEADDKVYPIGSQYTINGFIIGDDTTENGYPITAKIEVVDTKNTISPKLIAHTIPLNNVKINGNNRLTSNRDLAIKEIISWDVSQQLYNYRDTYGLSTEGYTRSDGWDSPETKLKGHGSGHYMSALALAYAAATNPSHKEILRRNITRMVNELRECQERTFVWSEELGRYLEARDFAPEEELKKMKGTWEAFDEHKTKWATYGYGYLNAIPPHHPALIEMYRAYNNSDWVWAPYYSIHKQLAGLIDIATYMDDKSIADKALLIAKDMGLWVWNRMHYRTYVKKDGTQEERRTHPGNRYEMWNMYIAGEVGGMGESLARLSEMVSAPEEKARLIEASNCFDSPAFYEPLSKNIDDIRNRHANQHIPMIIGALRSYLSNNDTFYYHVSHNFWNLIQGRYRYSTGGVGNGEMFRQPYTQIVSMAMNGVSEGESHSNPHINETCCAYNLLKLTKDLNCLNPDDARYMDYYERTLYNQIIGSLHPEHHQTTYQYAVGLNASKPWGNETPQSTCCGGTGSENHVKYQEATYFVSDNTLWVALYMPTTLHWEEKNITLQQECLWPAKSSTIKVTAGEARFAMKLRVPYWATDGFDVKLNGISIATHYQPCSYAVIPTRQWKENDIVEITMPFTKHIDYGPDKLPAEIASKDGHQLETAWVGTLMHGPFAMTATDITNWTEATLNIDSRLASITVVEPNGPQTGTTGNLYTLMQGGRTFQPDYYRHDHTTHYFRINHIKDPTEGHHHHHH”, which “soluble on expression in E. coli” value is on record?
Answer: soluble

Question: Which “soluble on expression in E. coli” value does the source give for “MGSDKIHHHHHHMTKPPTLRPRFWETVPLDRMTPSEWEALCDGCGKCCLNKIEFEDTGEVAFTRIACRLLDGDSCRCSNYEIRRQFVPDCVQLSPATLPKIVYWMPRTCAYRLLHEGKSLPGWHYLLTGDRNSVHDAGASVQGWTVPEFEVAEEDWEDHIIEETP” here?
Answer: not soluble

Question: Which “soluble on expression in E. coli” value does the source give for “MSRFPRRFIDDSSMEDAGISLCPSIHYRPINPNDLDRLEQIHRDIFPIKYESEFFQSVVNGVDIVSWAAVDRSRPDDHSDELIGFVTAKFVLAKDSEIDDLIHYDSSKGEETLIYILTLGVVETYRNRGIAMSLISEVIKYASGLSVCRGVYLHVIAHNNAAICLYKRLMFRCVRRLHGFYLINRHHFDAFLFVYFINGSRTPCSPLEVAMFVVNYMKSGIKSVASKLANKDEKGLKWLFCKDTDCV” here?
Answer: soluble

Question: Which “soluble on expression in E. coli” value does the source give for “MSLKIVVTKFGGSSLADSNQFKKVKGIIDSDANRKYIIPSAPGKRTNKDYKITDLLYLCNAHVKNGIPFDDVFKLISQRYTEIVSELNIDMDIAYYLEKVKKNIENGASSDYAASRGEYLNGVILAKYLNAEFIDAAEVIFFDKSGCFDEKKSYEKIKEKVLSCNKAVIPGFYGSSFNGDVKTFSRGGSDVTGSIISAGVNADLYENWTDVSGFLMADPRIVENPKTISKISYKELRELSYMGATVLHEEAIFPVKDSGIPINIKNTNKPSDPGTLILSDTHKEINLGTITGIAGKKNFTVIAIEKALLNSEVGFCRKILSILEMYGVSFEHMPSGVDSVSLVIEDCKLDGKCDKIIEEIKKQCNPDSIEIHPNMALVATVGTGMAKTKGIANKIFTALSKENVNIRMIDQGSSEINVIVGVETVDFEKAVKSIYNAFNEGHHHHHH” here?
Answer: soluble

Question: For “MSLTMNSEDKFKILQIADLHFSTGYGKCLDPQPPSSAKGCKADSRTLEFINKVLDLEKPDMVVLTGDQIFGDASPDLESSAFKALNPFVERKIPFAITVGNHDDEGSLKREEIMGLYADMPYSVAAMGPASIDGFGNYVVTVQGKSSKATALSLYFVDSHAYSKTPKVTPGYDWIKENQLIYLKQEAESIQNSVEKYRKSNKIPLAMAFFHIPLPEFRNLNQPFIGENREGVTAPRYNSGARQVLSEIGVSVASVGHDHCNDYCLQDTQQSLSPGDNKMWLCFGGGAGLGGYGGYNGYIRRMRVYELDTSKGEIKTWKRTEDNPGNIIDEQVLVSNGDVVNEGHHHHHH”, which “soluble on expression in E. coli” value is on record?
Answer: soluble

Question: Which “soluble on expression in E. coli” value does the source give for “MKRLLFLGVDVGGTKTLAVLSDEQGNVLAIYKGKGANYQVVGKENAVRNLKDVIEAILDRAGKTRKEIDFAFFGYAGADFDYEMKIVREILEKLGLEKFDFDNDGRIALRSGVFDDIGIMVSCGTGSISYASDGRRVNRIGGLSFSLGERLGSHYIASLVTSAVMRAKDGRDDWTTLVDEVEKEIGPVENLLRYDYEGGYTAELVKKVNQALFRCAEKGDAVSLRIFDEIVVEVKKIIDAHRKALNFTPPIKLILEGSFFKNAPSLLINMIESAIGREYEIVIPEHDPVIGAVLFAMERVGLRVTEDLYNRLVRNYLREVKK” here?
Answer: soluble
